Data as given in patent US11999782B2, “Therapeutic agents for the treatment of diseases associated with undesired cell proliferation” (Fundació Privada Institutció Catalana de Recerca I Estudis …, priority 2009, dated 2024).

B1: TGFβ2: TGFβ2 (R&D Systems), member of the TGFβ family (protein, UniProt P61812 303-414, looked up)
Transforming growth factor …: ALDAAYCFRNVQDNCCLRPLYIDFKRDLGWKWIHEPKGYNANFCAGACPYLWSSDTQHSRVLSLYNTINPEASASPCCVSQDLEPLTILYYIGKTPKIEQLSNMIVKSCKCS
B2: TGFβ3: TGFβ3 (R&D Systems), member of the TGFβ family (protein, UniProt P10600 301-412, looked up)
Transforming growth factor …: ALDTNYCFRNLEENCCVRPLYIDFRQDLGWKWVHEPKGYYANFCSGPCPYLRSADTTHSTVLGLYNTLNPEASASPCCVPQDLEPLTILYYVGRTPKVEQLSNMVVKSCKCS

Columns and labels:
[1] = system: LIF expression in GBM neurospheres; assay: LIF mRNA by qRT-PCR in GBM neurospheres; type: cell-based, human; conditions: 100 pM, 3 hours, medium without serum
Method: FIG. 3. TGFβ induces the expression of LIF in PCTC and GBM neurospheres. (A) PCTC cells of the 11 samples of the indicated GEM (GBM1-11) were treated with 100 pM TGFβ1 for 3 hours in medium without serum or left untreated, and the expression levels of LIF were determined by means of qRT-PCR. The g-actin was determined as an internal normalization control. (B) GBM neurosphere cells were treated as in A and the expression levels of LIF were determined by means of qRT-PCR as in A. (C) GBM neurospheres were incubated with 100 pM TGFβ1 and/or 2 μM TβRI inhibitor for 3 hours in medium without serum and the mRNA levels of LIF were determined by means of qRT-PCR as in A. (D) GBM1 neurospheres were incubated with 100 pM TGFβ1, TGFβ2 and TGFβ3 for 3 hours in medium without serum and the mRNA levels of LIF were determined by means of qRT-PCR as in A. (E) The levels of LIF protein secreted were determined by means of ELISA in GBM1 neurospheres after 48 hours of treatment with 100 pM TGFβ1.
The U373MG and A172 cells were a generous gift from J. Rich and D. Bigner and were cultured in DMEM with 10% fetal bovine serum (FBS). The primary culture of tumor cells (PCTC) and the GBM neurospheres were generated as described (Bruna et al., (2007) Cancer Cell 11, 147-160; Gunther et al., (2008) Oncogene. May 1; 27(20):2897-909). Briefly, the samples of tumors were processed in the 30 minutes after the surgical resection. The ground pieces of the samples of human gliomas were digested with 200 U/ml collagenase I (Sigma) and 500 U/ml of DNase I (Sigma) in PBS for 2 hours at 37° C. and with constant vigorous stirring. The suspension of individual cells was filtered through a 70 μm cell filter (BD Falcon) and washed with PBS. Finally, the cells were resuspended and subsequently cultured in DMEM with 10% FBS, for the culture of PCTCs, or in neurosphere medium in the case of the GBM neurospheres. The neurospheres of normal human neuroprogenitors were generated from human embryonic cerebral cortex tissue (12-16 weeks after the conception) collected after voluntary abortions. The samples were processed and cultured as described (Poltavtseva et al. (2002) Brain Res Dev Brain Res 134, 149-154). The neurosphere medium consists of neurobasal medium (Gibco) supplemented with B27 (Gibco), L-glutamine (Gibco), penicillin/streptomycin, and growth factors (20 ng/mL EGF and 20 ng/mL FGF-2 (Peprotech)).
(§1) qRT-PCR was performed using Taqman probes from Applied Biosystems, according to the manufacturer's recommendations. The reactions were carried out in a ABI 7000 sequence detector (Perkin Elmer) and the results were expressed as the fold change calculated by means of the DDCt method relative to the control sample or the first quantified sample. The ribosomal unit of 18S or β-actin were used as internal normalization controls.
It was decided to investigate the molecular mechanisms responsible for the effect of TGFβ on GICs. Gene responses to TGFβ in GBM cells which could be involved in the regulation of the self-renewal of GICs were investigated. In a previous work (Bruna et al., 2007), transcriptome analyses were conducted in the U373MG glioma cell line treated with TGFβ and/or a TβRI inhibitor. LIF was among the 63 gene responses to TGFβ in U373MG which were dependent on the activity of TβRI. […] A panel of PCTCs derived from 11 different human GBMs was treated with TGFβ for 3 hours and the levels of LIF mRNA were determined.

[2] = system: LIF expression in normal human neuroprogenitors; assay: LIF mRNA in neurospheres of normal human neuroprogenitors; type: cell-based; conditions: 100 pM, 3 hours, compared with GBM neurospheres
Method: FIG. 8. Effect of TGFβ on the capacity of self-renewal of normal human neuroprogenitors. (A) Immunocytochemistry of the indicated markers was performed in human neuroprogenitor neurospheres. (B) Neurospheres of the sample of GBM1 and of human neuroprogenitors were incubated with the indicated members of the 100 pM TGFβ family for 3 hours and the mRNA levels of LIF were determined. (C, D) Neurosphere cells of normal human neuroprogenitors were incubated in the same conditions that have been described above in FIG. 1D in the presence of 100 pM TGFβ1 or 20 ng/ml LIF for 7 days and the number of newly formed neurospheres (C) and the number total of cells (D) were determined.
The U373MG and A172 cells were a generous gift from J. Rich and D. Bigner and were cultured in DMEM with 10% fetal bovine serum (FBS). The primary culture of tumor cells (PCTC) and the GBM neurospheres were generated as described (Bruna et al., (2007) Cancer Cell 11, 147-160; Gunther et al., (2008) Oncogene. May 1; 27(20):2897-909). Briefly, the samples of tumors were processed in the 30 minutes after the surgical resection. The ground pieces of the samples of human gliomas were digested with 200 U/ml collagenase I (Sigma) and 500 U/ml of DNase I (Sigma) in PBS for 2 hours at 37° C. and with constant vigorous stirring. The suspension of individual cells was filtered through a 70 μm cell filter (BD Falcon) and washed with PBS. […]
qRT-PCR was performed using Taqman probes from Applied Biosystems, according to the manufacturer's recommendations. The reactions were carried out in a ABI 7000 sequence detector (Perkin Elmer) and the results were expressed as the fold change calculated by means of the DDCt method relative to the control sample or the first quantified sample. […]
It was decided to assess whether this effect was specific to tumor cells or was also present in normal neuroprogenitor cells. […] First, it was determined if TGFβ induced LIF in normal human neuroprogenitors. […]

GBM neurospheres = assay: Differentiation of GBM neurospheres (neuroprogenitor markers, adhesion); type: cell-based, human; conditions: GBM1 neurospheres, 7 days without EGF or FGF, 100 pM TGFβ1 or 20 ng/ml LIF
Method: FIG. 7. TGFβ and LIF prevent the differentiation of GBM neurospheres. (A) Immunocytochemistry of the indicated proteins was performed in neurospheres derived from GBM1 treated with 100 pM TGFβ1 or 20 ng/ml LIF for 7 days in the absence of growth factors and the last 3 days on slides coated with poly-L-lysine. (B) The mRNA levels of Musashi-1 (Msi-1), Sox2 and Nestin were determined in GBM1 neurospheres after 7 days of the indicated treatments without growth factors. The RNA levels of 18S were used as an internal normalization control.
The immunocytochemistry of neurospheres and differentiated neurospheres was performed as described (Geshwind et al., 2001) using the following antibodies: anti-nestin (Chemicon), anti-GFAP (Dako), anti-TuJ1 (Chemicon), anti-04 (Chemicon), anti-Sox2 (Chemicon), anti-α-tubulin (Sigma). The nuclei were counterstained with 4′,6-diamino-2-phenylindole (DAPI).
as §1
The neurospheres derived from GBMs grown in the absence of growth factors and seeded in poly-L-lysine-coated plates tend to differentiate losing the expression of the neuroprogenitor markers Musashi-1, Sox2 and Nestin, and being adhered to the culture plate. It was decided to evaluate the effect of TGFβ and LIF on this differentiation process. The neurospheres were cultured in the presence of TGFβ or LIF without EGF or FGF for 7 days and subsequently processed for immunohistochemical staining and qRT-PCR assays for determining the levels of the neuroprogenitor markers Musashi-1, Sox2 and Nestin.

| Molecule | LIF transcript in neurospheres derived from patients [1] | induction of LIF mRNA in normal human neuroprogenitor neurospheres [2] | expression of Musashi-1, Sox2 and Nestin (immunocytochemistry, qRT-PCR) (GBM neurospheres) |
| --- | --- | --- | --- |
| B1 | capable of inducing LIF | did not induce LIF | – |
| B2 | capable of inducing LIF | did not induce LIF | maintained the expression |
